The source of these data is article PMC9491697 (PNAS Nexus, 2022).

Values joined by “and” are separate entries in the source; they are usually repeats but may differ in a detail not shown here. Equal values may be shown once.

Experiment [1] has as its target T1, human E-cadherin EC1-5-TwinStrep-8His (Homo sapiens, UniProt P12830).
T1 construct: human E-cadherin extracellular domains EC1-5, residues 155 to 698; also called hEC1-5-TS-8His; hE-EC15-TS-8H; source: Expi293, transfected, purified from supernatant (StrepTactin XT); not shown: Twin-Strep, C-terminal, kept; 8His, C-terminal, kept
As to the kind of experiment: BLI; E-cadherin EC1-5-TwinStrep-8His loaded on Ni-NTA sensors; Fabs in a 1:3 dilution series; Octet Red96, 23°C, 1000 rpm; 50 mM Tris pH 8.0, 150 mM NaCl, 3 mM CaCl2, 0.25 mg/mL BSA, 0.005% Tween-20; 1:1 binding global fit. As to conditions: both partners purified.

Experiment [2] addresses T2, human E-cadherin ectodomain EC1–5 with Twin-Strep and 8His tags (used for BLI) (Homo sapiens).
T2 construct: the range counts on the precursor; also called E-cadherin used for BLI; source: Expi293, transfected, purified from culture supernatant (StrepTactin XT)
T2 chain: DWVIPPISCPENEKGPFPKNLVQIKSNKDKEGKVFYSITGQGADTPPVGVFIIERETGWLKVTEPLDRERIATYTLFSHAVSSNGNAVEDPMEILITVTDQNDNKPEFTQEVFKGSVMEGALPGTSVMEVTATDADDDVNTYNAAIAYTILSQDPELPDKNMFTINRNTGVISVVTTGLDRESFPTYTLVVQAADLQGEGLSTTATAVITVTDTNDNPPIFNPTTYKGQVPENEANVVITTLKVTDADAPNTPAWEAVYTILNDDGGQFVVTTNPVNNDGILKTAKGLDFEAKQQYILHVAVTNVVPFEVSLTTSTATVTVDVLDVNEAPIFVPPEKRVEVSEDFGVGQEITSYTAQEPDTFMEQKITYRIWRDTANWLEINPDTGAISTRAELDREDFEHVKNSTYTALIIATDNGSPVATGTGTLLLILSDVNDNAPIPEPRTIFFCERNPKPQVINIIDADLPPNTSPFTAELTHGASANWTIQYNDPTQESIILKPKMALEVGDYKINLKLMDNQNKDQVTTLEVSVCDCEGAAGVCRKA
As to the kind of experiment: BLI; method taken from the construct description (E-cadherin used for BLI had an additional 8His tag); format and conditions not shown. As to conditions: both partners purified.

B1: 66E8 Fab (Fab, V domains shown)
VH: EVQLQQSGPELVKPGASVKISCKASGYSFTGYFMNWVKQSHGKSLEWIGRINPYNGDTFYKQRFKGKATLTVDKSSSTVHMDLLSLTSEDSAVYYCGRGNYYFDYWGQGTTLTVSS
VL: DVQITQSPSYLAASPGETITINCRTSKNISKYLAWYQEKPGKTNKLLIYSGYTLQSGIPSRFSGSGSGTDFTLTISSLEPEDFAMYYCQQHNEYPYTFGGGTKLEIK
notes: heavy chain of the 66E8 Fab in PDB 6VEL; light chain of the 66E8 Fab in PDB 6VEL; Fab as used in BLI and analytical SEC; source: ExpiCHO, transfected, purified
Take B1: the Kd in experiment [1] is 90.1 nM and 96.5 nM and 91.8 nM and 92.8 nM.

B2: 66E8 Fab (activating antibody to human E-cadherin) (Fab, V domains shown)
VH: B1 VH
VL: B1 VL
notes: source: ExpiCHO, transfected, purified (CaptureSelect LC-kappa (mur) and Ni-NTA, or StrepTactin XT); kifunensine and Endo Hf for crystallography
For B2, the dissociation constant (Kd) in experiment [2] was ~100 nM.

B3: 19A11 Fab (activating antibody to human E-cadherin) (Fab, V domains shown)
VH: QVQLKESGPGLVAPSQSLSITCTVSGFSLSRYGVHWVRQPPGKGLEWLGMMWGGGNTDYNSALKSRLSISKDNSKSQVFLKMNSLQTDDTAMYYCASSNYVLGYAMDYWGQGTSVTVSS
VL: DIVMTQSPSSLAMSVGQKVTMNCKSSQSLLNSSNQKNYLAWYQQKPGQSPKLLIYFTSTRGSGVPDRFIGSGSGTDFTLTISSVEAEDLADYFCQQHYRTPHTFGGGTKVEIK
notes: The 6His form was used for the crystal complex; Purified on a murine kappa light chain resin; also called 19A11-6His Fab; source: ExpiCHO, transfected, purified (CaptureSelect LC-kappa (mur) and Ni-NTA, or StrepTactin XT); ConA-cleared for crystallography
B3: the Kd in experiment [2] is ~6.5 nM.
